The values that follow come from patent US20050089926A1, “Ligand sensing fluorescent acetylcholinesterase for detection of organophosphate activity” (priority 2002, published 2005).

In data set [1] the test system is E81C and E84C AChEs. The experiment in a line: Edrophonium binding, stopped-flow tryptophan fluorescence quenching (koff/kon). The arrangement: species or system mouse. To be noted: unlabeled mutant. How it is done:
(§1) Association and dissociation rate constants of edrophonium and […] with E81C and E84C AChEs were determined from changes in the tryptophan fluorescence using a stopped-flow spectrophotometer as described previously (29). Time-dependent decreases in tryptophan fluorescence were observed upon excitation at 276 nm by means of a 305 nm emission cut-off filter.

For data set [2], the system named is wild type and mutant mouse AChEs. Put plainly: Acetylthiocholine hydrolysis kinetics (Ellman method). It counts as biochemical. To be noted: means ± S.D. Here is the method: Assay of Catalytic Activity—The spectrophotometric method of Ellman was used (25), and kinetic constants for acetylthiocholine hydrolysis were determined by fitting the observed rates as described (26). Titration of active sites with known concentrations of the irreversible phosphorylating agent, MEPQ, was accomplished by the method of Levy and Ashani (27).
In general terms: In Ellman's method for cholinesterases, released thiocholine reacts with DTNB.

For data set [3], the target named is T1, acrylodan-labeled mouse AChE mutants (Mus musculus, UniProt P21836, E115C).
T1 construct: made in house; host or cells: HEK293
To be noted: edrophonium, tacrine or huperzine bound.

A further data set has as its system mouse AChE. Put plainly: TFK+ inhibition, association rate from residual enzyme activity. To be noted: for TFK+ kon: unlabeled enzyme, from measurements of enzyme activity. It counts as biochemical. How it is done: Trifluoroacetophenone Inhibition—Picomolar amounts of enzyme in 0.01% bovine serum albumin in 0.1 M sodium phosphate buffer, pH 7.0, were reacted with TFK^+ in the absence of substrate. Inhibition was monitored by measuring residual enzyme activity by removal of aliquots during the course of the reaction. Bimolecular rate constants of inhibition were determined by nonlinear fit of the data (28). ΔF=ΔFmax(Et+It+Kd−/(Et+It+Kd)^2−4 EtIt∫^0.5)(2Et)^−1 (Eq. 1)
(§2) TFK^+ binding to cysteine-substituted enzymes, both free and modified with acrylodan, was also examined (Table II). For E81C and E84C, the association rate constants (kon) for TFK^+ were obtained from measurements of enzyme activity. […] For acrylodan-labeled mutants, kon was measured from the time-dependent decrease of fluorescence signal (FIG. 3).

Data set [4] has as its target T2, acrylodan-labeled E81C and E84C (Mus musculus, UniProt P21836, E115C).
T2 construct: made in house; host or cells: HEK293
Format: binding. The note with it: acrylodan-conjugated E84C. Here is the method:
as §2

In data set [5] the test system is E81C and E84C AChEs. Put plainly: BW284c51 binding, stopped-flow tryptophan fluorescence quenching (koff/kon). Details: species or system mouse. To be noted: unlabeled mutant. How it is done: as §1
Data set [6] concerns wild type and mutant mouse AChEs. The note with it: data from Boyd et al. 2000, cited from earlier work; for Km / kcat: acetylthiocholine hydrolysis; for b: relative catalytic turnover of the ternary complex; for KSS: substrate inhibition or activation constant.

By Km is commonly meant the substrate concentration at which the rate is half of its maximum.

Where a chain is given by its changes, count along the chain named. Names and notes keep the numbering of the source. Values joined by “and” are separate entries in the source; they are usually repeats but may differ in a detail not shown here. Equal values may be shown once. Read-outs that look alike come from different tables or passages of the source.

B1: E84C (protein, UniProt P21836 32-614, looked up, variant E84C)
Acetylcholinesterase: EGREDPQLLVRVRGGQLRGIRLKAPGGPVSAFLGIPFAEPPVGSRRFMPPEPKRPWSGVLDATTFQNVCYQYVDTLYPGFEGTCMWNPNRELSEDCLYLNVWTPYPRPASPTPVLIWIYGGGFYSGAASLDVYDGRFLAQVEGAVLVSMNYRVGTFGFLALPGSREAPGNVGLLDQRLALQWVQENIAAFGGDPMSVTLFGESAGAASVGMHILSLPSRSLFHRAVLQSGTPNGPWATVSAGEARRRATLLARLVGCPPGGAGGNDTELIACLRTRPAQDLVDHEWHVLPQESIFRFSFVPVVDGDFLSDTPEALINTGDFQDLQVLVGVVKDEGSYFLVYGVPGFSKDNESLISRAQFLAGVRIGVPQASDLAAEAVVLHYTDWLHPEDPTHLRDAMSAVVGDHNVVCPVAQLAGRLAAQGARVYAYIFEHRASTLTWPLWMGVPHGYEIEFIFGLPLDPSLNYTTEERIFAQRLMKYWTNFARTGDPNDPRDSKSPQWPPYTTAAQQYVSLNLKPLEVRRGLRAQTCAFWNRFLPKLLSATDTLDEAERQWKAEFHRWSSYMVHWKNQFDHYSKQERCSDL
As to B1, in the data set with E81C and E84C AChEs [1], the “Edrophonium Kd ratio to wild type (head is formula MATH:2)” value is 2 and 2.2. Moreover, in data set [2] (acetylthiocholine hydrolysis), the Michaelis constant (Km) worked out at 190 ± 9 µM and the kcat was 1.9 ± 0.4 10^5/min. In data set [2] (relative catalytic turnover of the ternary complex), the b is given as 0.2 ± 0.05. Moreover, the KSS in data set [2] (substrate inhibition or activation constant) stood at 26 ± 2 mM. The “bathochromic shift upon inhibitor binding” value in data set [3] turned out to be 33 nm. In addition, in the data set with mouse AChE, the “TFK+ kon” value was 93 10^9M^−1min^−1. Also, the “TFK+ kon ratio to wild type (head is formula MATH:1)” value in the data set on mouse AChE (unlabeled mutant) is listed as 1.6. The “reduction of kon of TFK+ by acrylodan conjugation compared with unconjugated E84C” value in data set [4] is 7 fold. Further, the “BW284c51 Kd ratio to wild type (head is formula MATH:3)” value with E81C and E84C AChEs [5] is 18.

B2: H287C (protein, UniProt P21836 32-614, looked up, variant H287C)
Acetylcholinesterase: B1 Acetylcholinesterase with C84E, H287C
Take B2: in data set [6], the Km was 58 ± 7 µM, the kcat was 1.8 ± 0.2 10^5/min, the b is 0.2 ± 0.06 and the KSS is reported as 12 ± 6 mM.

B3: A262C (protein, UniProt P21836 32-614, looked up, variant A262C)
Acetylcholinesterase: B1 Acetylcholinesterase with C84E, A262C
Consider B3, for which, in data set [6], the Michaelis-Menten constant (Km) was 59 ± 4 µM, the kcat is 1.6 ± 0.1 10^5/min, the b is reported as 0.2 ± 0.04 and the KSS is given as 11 ± 3 mM.

B4: Wild Type (protein, UniProt P21836 32-614, looked up)
Acetylcholinesterase: B1 Acetylcholinesterase with C84E
As to B4, in data set [6], the Michaelis-Menten constant (Km) is 54 ± 16 µM, the kcat is on record as 1.6 ± 0.4 10^5/min, the b is reported as 0.2 ± 0.07 and the KSS is on record as 14 ± 5 mM. Moreover, in the data set with mouse AChE, the “TFK+ kon” value is on record as 150 10^9M^−1min^−1.
